The text below walks through data of paper PMC11293385 (Genes & Development, 2024).

B5: His-tagged IκBζ(404–718) (domain or fragment, human, UniProt Q9BYH8 404-718, looked up)
chain: MGNPMNTTQLGKSLFQWQVEQEESKLANISQDQFLSKDADGDTFLHIAVAQGRRALSYVLARKMNALHMLDIKEHNGQSAFQVAVAANQHLIVQDLVNIGAQVNTTDCWGRTPLHVCAEKGHSQVLQAIQKGAVGSNQFVDLEATNYDGLTPLHCAVIAHNAVVHELQRNQQPHSPEVQELLLKNKSLVDTIKCLIQMGAAVEAKDRKSGRTALHLAAEEANLELIRLFLELPSCLSFVNAKAYNGNTALHVAASLQYRLTQLDAVRLLMRKGADPSTRNLENEQPVHLVPDGPVGEQIRRILKGKSIQQRAPPY

The data set “His-tagged IκBζ(404–718)” concerns the target B5. Nature of the data set: SPR.
In data set [1] the target is NF-kB p50;GST-IkBzeta ankyrin repeat domain (Mus musculus;Homo sapiens, UniProt P25799;Q9BYH8 1-376;404-718, |). Nature of the data set: EMSA supershift.
The data set “crystal structure” deals with the molecule itself. Nature of the data set: crystal structure.
A further data set deals with T1, p50(1–376) homodimer (murine, UniProt P25799 1-376).
T1 sequence (looked up): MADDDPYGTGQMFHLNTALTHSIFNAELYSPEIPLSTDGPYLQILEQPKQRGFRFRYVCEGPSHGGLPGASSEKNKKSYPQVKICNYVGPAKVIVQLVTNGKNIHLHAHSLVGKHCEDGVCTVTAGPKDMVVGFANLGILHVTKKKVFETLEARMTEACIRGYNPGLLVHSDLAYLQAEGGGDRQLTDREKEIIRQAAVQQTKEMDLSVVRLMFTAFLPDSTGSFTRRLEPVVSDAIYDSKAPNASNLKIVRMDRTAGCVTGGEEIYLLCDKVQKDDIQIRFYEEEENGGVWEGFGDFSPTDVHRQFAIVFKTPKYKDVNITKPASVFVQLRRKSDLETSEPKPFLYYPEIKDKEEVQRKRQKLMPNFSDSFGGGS
Description: native gel or EMSA. On the technique in general: In EMSA bound probe runs differently from free probe, usually more slowly.

The target in data set [2] is p50(1–376):RelA(1–325) heterodimer (murine, UniProt P25799 1-376; Q04207 1-325). Nature of the data set: native gel or EMSA.
The next data set has as its target T2, p50(1–435) homodimer (murine, UniProt P25799 1-435).
T2 sequence (looked up): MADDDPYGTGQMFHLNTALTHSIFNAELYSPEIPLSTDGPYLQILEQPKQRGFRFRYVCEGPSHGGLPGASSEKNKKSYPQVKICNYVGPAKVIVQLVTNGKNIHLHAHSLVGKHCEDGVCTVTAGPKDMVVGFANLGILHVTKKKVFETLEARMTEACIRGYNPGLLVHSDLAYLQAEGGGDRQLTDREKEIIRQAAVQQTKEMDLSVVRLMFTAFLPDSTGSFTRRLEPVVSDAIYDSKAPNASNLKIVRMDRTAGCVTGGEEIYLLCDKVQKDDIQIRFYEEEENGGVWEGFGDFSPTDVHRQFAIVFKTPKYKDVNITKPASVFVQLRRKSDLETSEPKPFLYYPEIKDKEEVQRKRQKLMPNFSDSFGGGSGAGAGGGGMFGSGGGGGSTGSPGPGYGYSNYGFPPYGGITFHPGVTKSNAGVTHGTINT
Description: SPR. (Surface plasmon resonance follows binding to a sensor surface in real time, without labels.)

The target of a further data set is T3, p50(39–363) homodimer (murine, UniProt P25799 39-363).
T3 sequence (looked up): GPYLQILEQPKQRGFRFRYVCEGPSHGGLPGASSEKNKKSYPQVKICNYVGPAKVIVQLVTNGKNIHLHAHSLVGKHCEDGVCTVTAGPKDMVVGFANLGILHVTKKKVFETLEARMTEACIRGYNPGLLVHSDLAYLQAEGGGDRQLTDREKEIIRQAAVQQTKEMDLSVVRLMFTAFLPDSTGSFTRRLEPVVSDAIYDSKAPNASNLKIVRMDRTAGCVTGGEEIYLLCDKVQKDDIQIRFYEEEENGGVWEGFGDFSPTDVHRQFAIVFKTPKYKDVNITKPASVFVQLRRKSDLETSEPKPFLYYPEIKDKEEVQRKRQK
Description: SPR.

Sequence of p50(1–376):RelA(1–325) heterodimer (Q04207 1-325, one chain of several): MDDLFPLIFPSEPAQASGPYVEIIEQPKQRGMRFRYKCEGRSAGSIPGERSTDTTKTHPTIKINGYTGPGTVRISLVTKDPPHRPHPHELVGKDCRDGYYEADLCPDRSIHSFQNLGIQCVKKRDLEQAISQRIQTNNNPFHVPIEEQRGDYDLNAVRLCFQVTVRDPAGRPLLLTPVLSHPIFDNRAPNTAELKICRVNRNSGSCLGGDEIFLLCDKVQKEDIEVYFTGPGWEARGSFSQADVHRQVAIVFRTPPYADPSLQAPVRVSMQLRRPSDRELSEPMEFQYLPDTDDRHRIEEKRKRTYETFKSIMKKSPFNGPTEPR

B1: RelA(191–290)–p50(350–376) chimeric fusion protein (other, murine, UniProt Q04207 191-290, looked up)
chain: TAELKICRVNRNSGSCLGGDEIFLLCDKVQKEDIEVYFTGPGWEARGSFSQADVHRQVAIVFRTPPYADPSLQAPVRVSMQLRRPSDRELSEPMEFQYLPEIKDKEEVQRKRQKLMPNFSDSFGGGS
One may read the Kd as the constant that tells how readily two partners part at equilibrium. In turn, B1 showed a Kd with His-tagged IκBζ(404–718) of 0.615 nM. This counts as sub-nanomolar.

B2: human IL-6 kB DNA probe (dsDNA)
DNA 1: AGATTTATCAAATGTGGGATTTTCCCATGAGTCTCAATATT
DNA 2: AATATTGAGACTCATGGGAAAATCCCACATTTGATAAATCT
With B2, the binding result in data set [1] is reported as “binds”.

B3: murine p50 dimerization domain homodimer (residues 245–376) (domain or fragment, UniProt P25799 245-376, looked up)
chain: ASNLKIVRMDRTAGCVTGGEEIYLLCDKVQKDDIQIRFYEEEENGGVWEGFGDFSPTDVHRQFAIVFKTPKYKDVNITKPASVFVQLRRKSDLETSEPKPFLYYPEIKDKEEVQRKRQKLMPNFSDSFGGGS
With B3, the binding result in the data set “crystal structure” is given as “binds”. This molecule also gave a Kd in the data set with His-tagged IκBζ(404–718) of 0.0912 nM.

B4: GST-IκBζ(404–718) (domain or fragment, human, UniProt Q9BYH8 404-718, looked up)
chain: MGNPMNTTQLGKSLFQWQVEQEESKLANISQDQFLSKDADGDTFLHIAVAQGRRALSYVLARKMNALHMLDIKEHNGQSAFQVAVAANQHLIVQDLVNIGAQVNTTDCWGRTPLHVCAEKGHSQVLQAIQKGAVGSNQFVDLEATNYDGLTPLHCAVIAHNAVVHELQRNQQPHSPEVQELLLKNKSLVDTIKCLIQMGAAVEAKDRKSGRTALHLAAEEANLELIRLFLELPSCLSFVNAKAYNGNTALHVAASLQYRLTQLDAVRLLMRKGADPSTRNLENEQPVHLVPDGPVGEQIRRILKGKSIQQRAPPY
For B4, the binding result (with p50(1–376) homodimer; in data set [2]) was “binds” throughout.
Take B5: the binding result with p50(1–435) homodimer and with p50(39–363) homodimer was “binds” in each case.
